{"source": "patent US20090215120A1", "about": "(UNIVERSITY OF MEDICINE AND DENTISTRY OF NEW JERSEY, published 2009)", "binders": {"B1": {"name": "phosphorylated EnvZc (EnvZc-P), 32P-labelled (protein)", "chain": "RIQNRPLVDLEHAALQVGKGIIPPPLREYGASEVRSVTRAFNHMAAGVKQLADDRTLLMAGVSHDLRTPLTRIRLATEMMSEQDGYLAESINKDIEECNAIIEQFIDYLRTGQEMPMEMADLNAVLGEVIAAESGYEREIETALYPGSIEVKMHPLSIKRAVANMVVNAARYGNGWIKVSSGTEPNRAWFQVEDDGPGIAPEQRKHLFQPFVRGDSARTISGTGLGLAIVQRIVDNHNGMLELGTSERGGLSIRAWLPVPVTRAQGTTKEG"}, "B2": {"name": "EnvZc, the cytoplasmic domain of EnvZ (histidine kinase of E. coli) (protein)", "chain": "B1 chain"}, "B3": {"name": "OmpR, transcription factor (response regulator) of E. coli (other)", "chain": "MQENYKILVVDDDMRLRALLERYLTEQGFQVRSVANAEQMDRLLTRESFHLMVLDLMLPGEDGLSICRRLRSQSNPMPIIMVTAKGEEVDRIVGLEIGADDYIPKPFNPRELLARIRAVLRRQANELPGAPSQEEAVIAFGKFKLNLGTREMFREDEPMPLTSGEFAVLKALVSHPREPLSRDKLMNLARGREYSAMERSIDVQISRLRRMVEEDPAHPRYIQTVWGLGYVFVPDGSKA", "notes": "Purified wild-type OmpR; also called wild-type OmpR; non-tagged OmpR"}}, "key": {"[1]": {"biological_target": "T1, OmpR, transcription factor (response regulator) of E. coli, P0AA16", "T1 chain": "B3 chain"}, "[2]": {"biological_target": "PrS2-OmpR (OmpR fused to two tandem repeats of the N-terminal domain, residues 1-92, of protein S of Myxococcus xanthus), P02966", "sequence (P02966 whole entry, looked up, the tested form may be a part)": "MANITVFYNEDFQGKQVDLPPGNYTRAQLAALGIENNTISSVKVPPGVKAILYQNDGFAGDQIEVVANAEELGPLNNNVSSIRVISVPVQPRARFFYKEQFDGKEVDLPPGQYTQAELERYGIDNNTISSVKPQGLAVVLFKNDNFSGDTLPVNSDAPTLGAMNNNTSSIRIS"}, "[3]": {"biological_target": "T2, phosphorylated OmpR (OmpR-P), P0AA16", "T2 chain": "B3 chain"}, "[4]": {"biological_target": "phosphorylated PrS2-OmpR (PrS2-OmpR-P)"}, "[5]": {"biological_target": "T3, EnvZc, the cytoplasmic domain of EnvZ (histidine kinase of E. coli) (E. coli, UniProt P0AEJ4 180-450)", "T3 construct": "domain: cytoplasmic domain of EnvZ; Purified EnvZc", "T3 sequence": "B1 chain", "experiment": "10% native PAGE, 4 uM of each protein, 5 min at room temperature"}}, "data": [{"binder": "B1", "values": [{"measurement": "phosphotransfer from 32P-labelled EnvZc-P to OmpR (SDS-PAGE, autoradiography)", "setting": "[1]", "value": "the phosphoryl group on EnvZ was instantly transferred to OmpR and this reaction was completed in 120 sec"}, {"measurement": "phosphotransfer from 32P-labelled EnvZc-P to PrS2-OmpR (SDS-PAGE, autoradiography)", "setting": "[2]", "value": "EnvZc-P was able to phosphorylate PrS2-OmpR and the result was almost identical to the non-tagged OmpR"}]}, {"binder": "B2", "values": [{"measurement": "dephosphorylation of OmpR-P by EnvZc upon addition of ADP (SDS-PAGE, autoradiography)", "setting": "[3]", "value": "OmpR-P was quickly dephosphorylated and Pi was released"}, {"measurement": "dephosphorylation of PrS2-OmpR-P by EnvZc upon addition of ADP (SDS-PAGE, autoradiography)", "setting": "[4]", "value": "Although in case of PrS2-OmpR, this reaction was slowed by PrS2 tag, phosphorylated PTS2-OmpR was dephosphorylated by EnvZc"}]}, {"binder": "B3", "values": [{"measurement": "binding result", "setting": "[5]", "value": "binds"}]}]}
